Target: Biotinylated CD11b I domain (human)
Test: BLI

| Substance | Kd [µM] |
| --- | --- |
| CC8 LukAB (complex) | 0.00941 |
| CC30 LukAB (complex) | 0.214 |

From paper PMC8597016
